Reference: article PMC9482650, “Quantitative fragmentomics allow affinity mapping of interactomes” (Nature Communications, 2022)

Experiments:
Assay in all cases: holdup assay
Parameters in all cases: key: below the threshold = too weak to quantify, mostly under pKd 3.1 to 4
Conditions in all cases: plain residues with an end cap or a label only (N-terminal biotin on a linker: ttds)
Inadl_2, Q8NI35 = target: Inadl_2, Q8NI35
GRID2IP_2, A4D2P6 = target: GRID2IP_2, A4D2P6
NHERF4_1, Q86UT5-2 = target: NHERF4_1, Q86UT5-2
NHERF3_1, Q5T2W1 = target: T1, NHERF3_1, Q5T2W1
T1 sequence (Q5T2W1 4-100, limits assumed, looked up): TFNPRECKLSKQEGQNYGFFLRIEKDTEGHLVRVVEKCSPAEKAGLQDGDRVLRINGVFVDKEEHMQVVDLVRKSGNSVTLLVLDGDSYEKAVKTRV

SNX27, Q96L92 = target: SNX27, Q96L92
Inadl_3, Q8NI35 = target: Inadl_3, Q8NI35
DLG4_2, P78352 = target: DLG4_2, P78352
SNTA1, Q13424 = target: T2, SNTA1, Q13424
T2 sequence (Q13424 82-180, limits assumed, looked up): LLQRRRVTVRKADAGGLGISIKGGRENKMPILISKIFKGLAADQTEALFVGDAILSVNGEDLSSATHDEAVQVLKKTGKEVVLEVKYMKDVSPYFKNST

TJP1_3, Q07157 = target: TJP1_3, Q07157
DLG1_2, Q12959 = target: DLG1_2, Q12959
PARD3B_1, Q8TEW8 = target: T3, PARD3B_1, Q8TEW8
T3 sequence (Q8TEW8 196-299, limits assumed, looked up): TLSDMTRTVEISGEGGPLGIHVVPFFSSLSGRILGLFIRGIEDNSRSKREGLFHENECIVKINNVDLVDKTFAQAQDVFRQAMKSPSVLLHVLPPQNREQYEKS

MPDZ_5, O75970 = target: T4, MPDZ_5, O75970
T4 sequence (O75970 695-796, limits assumed, looked up): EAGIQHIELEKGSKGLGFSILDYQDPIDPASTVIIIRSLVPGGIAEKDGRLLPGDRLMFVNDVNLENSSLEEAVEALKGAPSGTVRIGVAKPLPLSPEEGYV

GRIP2_3, Q9C0E4 = target: GRIP2_3, Q9C0E4
SHANK1, Q9Y566 = target: T5, SHANK1, Q9Y566
T5 sequence (Q9Y566 658-767, limits assumed, looked up): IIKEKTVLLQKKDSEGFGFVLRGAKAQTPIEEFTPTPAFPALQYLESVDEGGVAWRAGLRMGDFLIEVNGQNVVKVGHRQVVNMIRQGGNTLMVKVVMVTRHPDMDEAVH

GORASP2, Q9H8Y8 = target: GORASP2, Q9H8Y8
PICK1, Q9NRD5 = target: PICK1, Q9NRD5
AHNAK1, Q09666 = target: AHNAK1, Q09666
ARHGEF12, Q9NZN5-2 = target: ARHGEF12, Q9NZN5-2
GRIP2_5, Q9C0E4 = target: GRIP2_5, Q9C0E4
SNTG2, Q9NY99 = target: T6, SNTG2, Q9NY99
T6 sequence (Q9NY99 68-166, limits assumed, looked up): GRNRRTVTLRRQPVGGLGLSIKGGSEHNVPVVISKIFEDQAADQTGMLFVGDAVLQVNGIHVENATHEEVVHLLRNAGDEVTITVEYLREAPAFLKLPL

APBA1_1, Q02410 = target: T7, APBA1_1, Q02410
T7 sequence (Q02410 651-752, limits assumed, looked up): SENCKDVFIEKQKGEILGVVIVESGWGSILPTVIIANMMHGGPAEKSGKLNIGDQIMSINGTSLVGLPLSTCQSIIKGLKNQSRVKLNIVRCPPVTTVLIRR

SCRIB_2, Q14160 = target: SCRIB_2, Q14160
DLG2_3, Q15700 = target: DLG2_3, Q15700
GOPC, Q9HD26 = target: GOPC, Q9HD26
DFNB31_2, Q9P202 = target: T8, DFNB31_2, Q9P202
T8 sequence (Q9P202 274-371, limits assumed, looked up): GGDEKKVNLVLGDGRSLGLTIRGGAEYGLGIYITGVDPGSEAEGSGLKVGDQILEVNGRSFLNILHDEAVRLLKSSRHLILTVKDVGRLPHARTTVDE

TIAM2, Q8IVF5 = target: T9, TIAM2, Q8IVF5
T9 sequence (Q8IVF5 885-986, limits assumed, looked up): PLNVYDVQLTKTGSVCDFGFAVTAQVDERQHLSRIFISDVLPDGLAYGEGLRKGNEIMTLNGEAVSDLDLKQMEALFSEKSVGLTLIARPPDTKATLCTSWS

IL16_3, Q14005 = target: IL16_3, Q14005
DLG5_1, Q8TDM6 = target: DLG5_1, Q8TDM6
DLG4_3, P78352 = target: DLG4_3, P78352
DLG4_3, P78352, sequence (P78352 306-403): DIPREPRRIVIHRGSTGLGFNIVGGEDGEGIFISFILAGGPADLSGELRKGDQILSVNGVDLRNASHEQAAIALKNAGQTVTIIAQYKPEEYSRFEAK

Inadl_3, Q8NI35, sequence (Q8NI35 359-469): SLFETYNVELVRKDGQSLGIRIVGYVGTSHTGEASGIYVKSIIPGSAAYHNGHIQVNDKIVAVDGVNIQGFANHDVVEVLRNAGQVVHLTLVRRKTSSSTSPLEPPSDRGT
DLG1_2, Q12959, sequence (Q12959 314-412): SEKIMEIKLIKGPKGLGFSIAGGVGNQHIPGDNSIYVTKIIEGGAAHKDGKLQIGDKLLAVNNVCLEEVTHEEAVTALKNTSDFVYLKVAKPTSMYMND
ARHGEF12, Q9NZN5-2, sequence (Q9NZN5 other isoform, or with tags, fused parts or gaps): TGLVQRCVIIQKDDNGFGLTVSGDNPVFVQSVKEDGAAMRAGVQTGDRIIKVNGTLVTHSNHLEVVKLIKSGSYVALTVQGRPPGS
SCRIB_2, Q14160, sequence (Q14160 857-960): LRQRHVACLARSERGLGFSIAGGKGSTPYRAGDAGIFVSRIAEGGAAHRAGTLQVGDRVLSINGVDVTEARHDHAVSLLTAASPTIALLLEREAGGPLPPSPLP
GRIP2_3, Q9C0E4, sequence (Q9C0E4 238-339): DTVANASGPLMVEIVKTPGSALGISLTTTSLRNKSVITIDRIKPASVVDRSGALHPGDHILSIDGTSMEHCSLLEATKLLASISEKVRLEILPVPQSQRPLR
Inadl_2, Q8NI35, sequence (Q8NI35 238-335): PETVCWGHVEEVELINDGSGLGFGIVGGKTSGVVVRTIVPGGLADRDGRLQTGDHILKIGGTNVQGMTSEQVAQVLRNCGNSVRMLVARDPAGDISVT
PICK1, Q9NRD5, sequence (Q9NRD5 17-115): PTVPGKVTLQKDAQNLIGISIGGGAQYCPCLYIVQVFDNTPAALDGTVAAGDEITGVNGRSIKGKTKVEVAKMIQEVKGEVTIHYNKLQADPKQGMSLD
GRIP2_5, Q9C0E4, sequence (Q9C0E4 544-642): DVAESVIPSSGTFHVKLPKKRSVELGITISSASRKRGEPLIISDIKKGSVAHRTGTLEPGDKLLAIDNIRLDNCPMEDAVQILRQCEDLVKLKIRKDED
NHERF4_1, Q86UT5-2, sequence (Q86UT5 other isoform, or with tags, fused parts or gaps): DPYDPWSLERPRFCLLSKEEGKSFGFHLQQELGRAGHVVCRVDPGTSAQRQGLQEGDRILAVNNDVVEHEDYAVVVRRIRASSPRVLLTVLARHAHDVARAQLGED
DLG4_2, P78352, sequence (P78352 155-259): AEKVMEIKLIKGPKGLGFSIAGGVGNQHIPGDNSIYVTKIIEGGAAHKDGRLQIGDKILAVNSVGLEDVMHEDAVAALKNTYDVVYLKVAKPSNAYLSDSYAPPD
AHNAK1, Q09666, sequence (Q09666 4-100): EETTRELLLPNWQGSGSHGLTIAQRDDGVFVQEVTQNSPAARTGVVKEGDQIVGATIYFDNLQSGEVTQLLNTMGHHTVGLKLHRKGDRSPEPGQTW
DLG5_1, Q8TDM6, sequence (Q8TDM6 617-713): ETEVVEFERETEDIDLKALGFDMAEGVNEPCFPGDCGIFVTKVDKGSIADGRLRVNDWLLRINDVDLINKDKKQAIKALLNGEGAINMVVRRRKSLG
IL16_3, Q14005, sequence (Q14005 1107-1207): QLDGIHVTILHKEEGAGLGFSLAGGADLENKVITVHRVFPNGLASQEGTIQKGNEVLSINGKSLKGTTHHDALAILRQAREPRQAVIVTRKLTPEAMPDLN
TJP1_3, Q07157, sequence (Q07157 416-512): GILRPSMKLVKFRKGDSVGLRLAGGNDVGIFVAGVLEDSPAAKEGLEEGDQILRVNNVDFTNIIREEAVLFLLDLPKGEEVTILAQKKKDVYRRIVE
GRID2IP_2, A4D2P6, sequence (A4D2P6 272-370): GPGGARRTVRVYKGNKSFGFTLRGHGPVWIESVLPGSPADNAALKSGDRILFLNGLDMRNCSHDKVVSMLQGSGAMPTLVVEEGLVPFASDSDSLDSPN

Binder | pKd (Inadl_2, Q8NI35) | pKd (GRID2IP_2, A4D2P6) | pKd (NHERF4_1, Q86UT5-2) | pKd (NHERF3_1, Q5T2W1) | pKd (SNX27, Q96L92) | pKd (Inadl_3, Q8NI35) | pKd (DLG4_2, P78352) | pKd (SNTA1, Q13424) | pKd (TJP1_3, Q07157) | pKd (DLG1_2, Q12959) | pKd (PARD3B_1, Q8TEW8) | pKd (MPDZ_5, O75970) | pKd (GRIP2_3, Q9C0E4) | pKd (SHANK1, Q9Y566) | pKd (GORASP2, Q9H8Y8) | pKd (PICK1, Q9NRD5) | pKd (AHNAK1, Q09666) | pKd (ARHGEF12, Q9NZN5-2) | pKd (GRIP2_5, Q9C0E4) | pKd (SNTG2, Q9NY99) | other results
QRPYRRESEI [KCNJ12, Q14500] | below the threshold | below the threshold | below the threshold | below the threshold | below the threshold | below the threshold | 4.56 | 3.97 | below the threshold | 4.61 | below the threshold | below the threshold | below the threshold | below the threshold | 3.74 | below the threshold | below the threshold | 3.65 | below the threshold | 3.63 | pKd (APBA1_1, Q02410): below the threshold; pKd (SCRIB_2, Q14160): 3.56; pKd (DLG2_3, Q15700): 4.65; pKd (GOPC, Q9HD26): below the threshold; pKd (DFNB31_2, Q9P202): below the threshold; pKd (TIAM2, Q8IVF5): below the threshold; pKd (IL16_3, Q14005): below the threshold; pKd (DLG5_1, Q8TDM6): below the threshold; pKd (DLG4_3, P78352): 4.31
GRLLGLETNV [ARHGEF26, Q96DR7] | below the threshold | below the threshold | below the threshold | below the threshold | 4.49 | 3.58 | 4.85 | 4.7 | below the threshold | 5.18 | below the threshold | below the threshold | below the threshold | below the threshold | 3.97 | below the threshold | below the threshold | below the threshold | below the threshold | 4.55 | pKd (APBA1_1, Q02410): below the threshold; pKd (SCRIB_2, Q14160): 4.29; pKd (DLG2_3, Q15700): 4.54; pKd (GOPC, Q9HD26): below the threshold; pKd (DFNB31_2, Q9P202): below the threshold; pKd (TIAM2, Q8IVF5): below the threshold; pKd (IL16_3, Q14005): below the threshold; pKd (DLG5_1, Q8TDM6): below the threshold; pKd (DLG4_3, P78352): 3.8
